# Test results reported in patent publication US20260167721A1 (ABLEXIS, published 2026).
# Residue numbers refer to the chain shown, from its start.
# B1: CD3 × CD33-BspAb101 (bispecific antibody)
# scFv-Fc: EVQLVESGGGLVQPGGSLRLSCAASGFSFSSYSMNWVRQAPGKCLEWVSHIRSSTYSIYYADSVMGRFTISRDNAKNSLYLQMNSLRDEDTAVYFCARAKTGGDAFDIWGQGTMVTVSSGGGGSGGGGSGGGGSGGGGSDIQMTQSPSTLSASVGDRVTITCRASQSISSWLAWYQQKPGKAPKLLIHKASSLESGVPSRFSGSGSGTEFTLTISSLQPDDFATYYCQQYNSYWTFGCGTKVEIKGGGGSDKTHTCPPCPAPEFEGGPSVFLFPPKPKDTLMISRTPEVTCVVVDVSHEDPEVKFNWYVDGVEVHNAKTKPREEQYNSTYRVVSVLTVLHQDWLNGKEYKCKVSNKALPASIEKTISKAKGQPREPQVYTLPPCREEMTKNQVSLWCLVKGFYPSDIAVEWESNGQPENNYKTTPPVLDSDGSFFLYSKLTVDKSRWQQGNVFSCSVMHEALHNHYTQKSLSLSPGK
# heavy: EVQLVQSGAEVKKPGSSVKVSCKASGYTITDSNIHWVRQAPGQSLEWIGYIYPYNGGTDYNQKFKNRATLTVDNPTNTAYMELSSLRSEDTAFYYCVNGNPWLAYWGQGTLVTVSSASTKGPSVFPLAPSSKSTSGGTAALGCLVKDYFPEPVTVSWNSGALTSGVHTFPAVLQSSGLYSLSSVVTVPSSSLGTQTYICNVNHKPSNTKVDKRVEPKSCDKTHTCPPCPAPEFEGGPSVFLFPPKPKDTLMISRTPEVTCVVVDVSHEDPEVKFNWYVDGVEVHNAKTKPREEQYNSTYRVVSVLTVLHQDWLNGKEYKCKVSNKALPASIEKTISKAKGQPREPQVCTLPPSREEMTKNQVSLSCAVKGFYPSDIAVEWESNGQPENNYKTTPPVLDSDGSFFLVSKLTVDKSRWQQGNVFSCSVMHEALHNRFTQKSLSLSPGK
# light: DIQLTQSPSTLSASVGDRVTITCRASESLDNYGIRFLTWFQQKPGKAPKLLMYAASNQGSGVPSRFSGSGSGTEFTLTISSLQPDDFATYYCQQTKEVPWSFGQGTKVEVKRTVAAPSVFIFPPSDEQLKSGTASVVCLLNNFYPREAKVQWKVDNALQSGNSQESVTEQDSKDSTYSLSSTLTLSKADYEKHKVYACEVTHQGLSSPVTKSFNRGEC
# notes: KiH heterodimer
# B2: CD3 × CD33-BspAb118 (bispecific antibody)
# scFv-Fc: FMLTQPHSVSESPGKTVTISCTRSSGSIASNYVQWYQQRPGSSPTTVIYEDNQRPSGVPDRFSGSIDSSSNSASLTISGLQTEDEADYYCQSYDSSNRVFGCGTKLTVLGGGGSGGGGSGGGGSGGGGSEVQLVESGGGLVKPGGSLRLSCVASGFTFSRYSMNWVRQAPGKCLEWVSSISSSSRYTYYADSLKGRFIMSRDNAKNSLFLQMNSLRAEDTAVYYCARNLYNALDYWGQGTLVTVSSGGGGSDKTHTCPPCPAPEFEGGPSVFLFPPKPKDTLMISRTPEVTCVVVDVSHEDPEVKFNWYVDGVEVHNAKTKPREEQYNSTYRVVSVLTVLHQDWLNGKEYKCKVSNKALPASIEKTISKAKGQPREPQVYTLPPCREEMTKNQVSLWCLVKGFYPSDIAVEWESNGQPENNYKTTPPVLDSDGSFFLYSKLTVDKSRWQQGNVFSCSVMHEALHNHYTQKSLSLSPGK
# heavy: B1 heavy
# light: B1 light
# notes: KiH heterodimer
# B3: CD3 × CD33-BspAb117 (bispecific antibody)
# scFv-Fc: NFMLTQPHSVSESPGKTVTISCTRSSGSIASNYVQWYQQRPGSSPTSVIYEDNQRPSGVPDRFSGSIDSSSNSASLTISGLKTEDEADYYCQSYDRSNRVFGCGTKLTVLGGGGSGGGGSGGGGSGGGGSEVQLVESGGGLVKPGGSLRLSCAASGLTFSTYSMNWVRQAPGKCLEWVSSISSSGSYVYYADSVKGRFTMSRDNAKNSLYLQMNSLRAEDTAVYYCARERRELLFDYWGQGTLVTVSSGGGGSDKTHTCPPCPAPEFEGGPSVFLFPPKPKDTLMISRTPEVTCVVVDVSHEDPEVKFNWYVDGVEVHNAKTKPREEQYNSTYRVVSVLTVLHQDWLNGKEYKCKVSNKALPASIEKTISKAKGQPREPQVYTLPPCREEMTKNQVSLWCLVKGFYPSDIAVEWESNGQPENNYKTTPPVLDSDGSFFLYSKLTVDKSRWQQGNVFSCSVMHEALHNHYTQKSLSLSPGK
# heavy: B1 heavy
# light: B1 light
# notes: KiH heterodimer
# B4: CD3 × CD33-BspAb115 (bispecific antibody)
# scFv-Fc: NFMLTQPHSVSESPGKTVTISCTRTSGSIASNYVQWYQQRPGSSPTTVIYEDNQRPSGVPDRFSGSIDSSSNSASLTISGLKTEDEAAYYCQSYDRSNRVFGCGTKLTVLGGGGSGGGGSGGGGSGGGGSQVQLQESGPGLVKPSETLSLTCTVSGGSISSYYWSWIRQPAGKCLEWIGRIYTSGSTKYNPSLKSRVTMSVDTSKNQFSLKLISVTAADTAVYFCARERIRDLYFDYWGQGTLVTVSSGGGGSDKTHTCPPCPAPEFEGGPSVFLFPPKPKDTLMISRTPEVTCVVVDVSHEDPEVKFNWYVDGVEVHNAKTKPREEQYNSTYRVVSVLTVLHQDWLNGKEYKCKVSNKALPASIEKTISKAKGQPREPQVYTLPPCREEMTKNQVSLWCLVKGFYPSDIAVEWESNGQPENNYKTTPPVLDSDGSFFLYSKLTVDKSRWQQGNVFSCSVMHEALHNHYTQKSLSLSPGK
# heavy: B1 heavy
# light: B1 light
# notes: KiH heterodimer
# B5: CD3 × CD33-BspAb116 (bispecific antibody)
# scFv-Fc: NFMLTQPHSVSESPGKTVTISCTRSSGSIASNYVQWYQQRPGSSPTTVIYEDNQRPSGVPDRFSGSIDSSSNSASLTISGLKTEDEAYYYCQSFDSSNRVFGCGTKLTVLGGGGSGGGGSGGGGSGGGGSQVQLQESGPGLVKPSQTLSLTCTVSGGSISSGGYYWSWIRQHPGKCLEWIGYIYYSGSTYYNPSLKSRVTISVDTSKDQFSLKLSSVTAADTAVYYCARERKTSLPFDIWGQGTMVTVSSGGGGSDKTHTCPPCPAPEFEGGPSVFLFPPKPKDTLMISRTPEVTCVVVDVSHEDPEVKFNWYVDGVEVHNAKTKPREEQYNSTYRVVSVLTVLHQDWLNGKEYKCKVSNKALPASIEKTISKAKGQPREPQVYTLPPCREEMTKNQVSLWCLVKGFYPSDIAVEWESNGQPENNYKTTPPVLDSDGSFFLYSKLTVDKSRWQQGNVFSCSVMHEALHNHYTQKSLSLSPGK
# heavy: B1 heavy
# light: B1 light
# notes: KiH heterodimer
# B6: CD3 × CD33-BspAb104 (bispecific antibody)
# scFv-Fc: QSALTQPASVSGSPGQSITISCTGTSSDVGSYNLVSWYQQHPGKAPKLMIYEDIRRPSGVSNRFSASKSGDTASLTISGLQAEDEADYYCSSYAGSTTFAIFGCGTKLTVLGGGGSGGGGSGGGGSGGGGSEVQLVQSGAEVKKPGESLKISCKGSEYSFTTYWIAWVRQMPGKCLEWMGIIYPGDSDTTYSPSFQGQVTISADKSISIAFLQWSSLKASDTAMYYCARQGELDAFDIWGQGTMVTVSSGGGGSDKTHTCPPCPAPEFEGGPSVFLFPPKPKDTLMISRTPEVTCVVVDVSHEDPEVKFNWYVDGVEVHNAKTKPREEQYNSTYRVVSVLTVLHQDWLNGKEYKCKVSNKALPASIEKTISKAKGQPREPQVYTLPPCREEMTKNQVSLWCLVKGFYPSDIAVEWESNGQPENNYKTTPPVLDSDGSFFLYSKLTVDKSRWQQGNVFSCSVMHEALHNHYTQKSLSLSPGK
# heavy: B1 heavy
# light: B1 light
# notes: KiH heterodimer
# B7: CD3 × CD33-BspAb113 (bispecific antibody)
# scFv-Fc: NFMLTQPHSVSESPGKTVTISCTRSSGSIASNYVQWYQQRPGSSPTTVIYEDNQRPSGVPDRFSGSIDSSSNSASLTISGLKTEDEADYYCQSYDSSNRVFGCGTKLTVLGGGGSGGGGSGGGGSGGGGSEVQLVESGGGLVKFGGSLRLSCAASGFTFSRYSMNWVRQAPGKCLEWVSSISSSSSYKYYADSVKGRFTISRDNAKNSLYLQMNSLRAEDTAVYYCAREGGNSHGMDVWGQGTTVTVSSGGGGSDKTHTCPPCPAPEFEGGPSVFLFPPKPKDTLMISRTPEVTCVVVDVSHEDPEVKFNWYVDGVEVHNAKTKPREEQYNSTYRVVSVLTVLHQDWLNGKEYKCKVSNKALPASIEKTISKAKGQPREPQVYTLPPCREEMTKNQVSLWCLVKGFYPSDIAVEWESNGQPENNYKTTPPVLDSDGSFFLYSKLTVDKSRWQQGNVFSCSVMHEALHNHYTQKSLSLSPGK
# heavy: B1 heavy
# light: B1 light
# notes: KiH heterodimer
# B8: CD3 × CD33-BspAb119 (bispecific antibody)
# scFv-Fc: B7 scFv-Fc with L134V, V135A, F144P, S185G, K188T, A227V, G230R, N232K, S233G, H234A
# heavy: B1 heavy
# light: B1 light
# notes: KiH heterodimer
# Molecular target: T1, human CD3 (TCR/CD3 complex on the cell surface) (human, UniProt P07766 23-207; P04234 22-171; P09693 23-182)
# T1 construct: whole, on cells; Native CD3 on human Pan-T cells or Jurkat wild-type cells; also called CD3 on Pan-T cells; CD3 on Jurkat WT cells
# Test: flow cytometry, Pan-T cells, 1 ug/mL
# T1 sequence (P07766 23-207, chain 1 of 3): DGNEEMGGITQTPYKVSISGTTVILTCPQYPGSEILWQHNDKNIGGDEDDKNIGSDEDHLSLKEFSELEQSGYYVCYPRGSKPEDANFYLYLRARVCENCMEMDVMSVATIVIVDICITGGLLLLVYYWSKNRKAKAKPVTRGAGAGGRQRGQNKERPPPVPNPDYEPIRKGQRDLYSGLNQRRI
# T1 sequence (P04234 22-171, chain 2 of 3): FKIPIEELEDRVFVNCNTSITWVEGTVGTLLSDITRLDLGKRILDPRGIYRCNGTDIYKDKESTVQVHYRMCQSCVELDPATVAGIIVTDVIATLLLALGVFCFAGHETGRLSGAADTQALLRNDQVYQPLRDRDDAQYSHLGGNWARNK
# T1 sequence (P09693 23-182, chain 3 of 3): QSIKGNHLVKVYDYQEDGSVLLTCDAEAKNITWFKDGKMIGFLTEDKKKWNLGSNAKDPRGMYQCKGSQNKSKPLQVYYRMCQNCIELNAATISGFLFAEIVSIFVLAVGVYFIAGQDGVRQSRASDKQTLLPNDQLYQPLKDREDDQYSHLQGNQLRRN
% Positive [%],gMFI [gMFI],Binder
1.8,1910,B1
99.3,331000,B2
99.6,70300,B3
63.4,8660,B4
31.6,5260,B5
1.2,2020,B6
96.2,24900,B7
99.8,88200,B8

# Molecular target: T1, human CD3 (TCR/CD3 complex on the cell …)
# Test: flow cytometry, Pan-T cells, 10 ug/mL
% Positive [%],gMFI [gMFI],Binder
1.6,2150,B1
99.8,370000,B2
99.7,195000,B3
95.5,34200,B4
98.2,30000,B5
1.6,2090,B6
99.5,111000,B7
99.7,166000,B8

# Molecular target: T1, human CD3 (TCR/CD3 complex on the cell …)
# Test: flow cytometry, Jurkat WT cells, 1 ug/mL
row,gMFI [gMFI],Binder
1,1780,B1
2,56300,B2
3,29700,B3
4,7380,B4
5,3320,B5
6,1700,B6
7,10100,B7
8,22400,B8

# Molecular target: T1, human CD3 (TCR/CD3 complex on the cell …)
# Test: flow cytometry, Jurkat WT cells, 10 ug/mL
row,gMFI [gMFI],Binder
1,1940,B1
2,65000,B2
3,38600,B3
4,12600,B4
5,9600,B5
6,1790,B6
7,16000,B7
8,25700,B8

# Molecular target: T1, human CD3 (TCR/CD3 complex on the cell …)
# Test: flow cytometry, Jurkat WT gMFI over Jurkat KO gMFI, 1 ug/mL
row,Jurkat WT/KO (Fold) [fold],Binder
1,0.8,B1
2,12.3,B2
3,8.7,B3
4,3.6,B4
5,1.6,B5
6,0.8,B6
7,3.9,B7
8,7.8,B8

# Molecular target: T1, human CD3 (TCR/CD3 complex on the cell …)
# Test: flow cytometry, Jurkat WT gMFI over Jurkat KO gMFI, 10 ug/mL
row,Jurkat WT/KO (Fold) [fold],Binder
1,0.9,B1
2,13.8,B2
3,10.6,B3
4,5.7,B4
5,4.1,B5
6,1,B6
7,5.9,B7
8,9,B8
